Measured values published in patent publication US20230147852A1 (SORRENTO THERAPEUTICS, published 2023).

Legend:
[1] = target: T1, Recombinant human LAG3-His (Sino Biological; catalogue No. 16498-H08H) (human, UniProt P18627 23-450); assay: ELISA: antibody coated at 5 µg/mL, soluble human LAG3-His titrated (x-axis: Human LAG3, µg/ml), OD at 450nm
T1 construct: also called human LAG3 His-tag protein; CD223
T1 sequence: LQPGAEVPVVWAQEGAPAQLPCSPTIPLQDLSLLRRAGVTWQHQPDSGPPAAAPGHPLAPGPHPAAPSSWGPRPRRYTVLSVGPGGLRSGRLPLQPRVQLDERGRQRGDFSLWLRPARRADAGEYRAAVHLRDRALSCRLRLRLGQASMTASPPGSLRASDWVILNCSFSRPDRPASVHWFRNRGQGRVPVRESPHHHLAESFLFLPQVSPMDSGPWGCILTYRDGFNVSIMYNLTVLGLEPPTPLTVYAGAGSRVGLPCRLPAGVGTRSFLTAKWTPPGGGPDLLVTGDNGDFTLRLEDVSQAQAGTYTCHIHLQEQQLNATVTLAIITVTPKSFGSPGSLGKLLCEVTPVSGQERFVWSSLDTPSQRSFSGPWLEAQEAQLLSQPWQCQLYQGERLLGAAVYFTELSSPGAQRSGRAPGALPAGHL

Mouse LAG3 [2] = target: T2, Mouse LAG3 (mouse, UniProt Q61790); assay: […], antibody ([…]) at 2 µg/mL, […]
T2 construct: recombinant, His-tagged, coated on a Ni-NTA plate; also called mouse LAG3-His Tag recombinant protein
T2 sequence (antigen, looked up): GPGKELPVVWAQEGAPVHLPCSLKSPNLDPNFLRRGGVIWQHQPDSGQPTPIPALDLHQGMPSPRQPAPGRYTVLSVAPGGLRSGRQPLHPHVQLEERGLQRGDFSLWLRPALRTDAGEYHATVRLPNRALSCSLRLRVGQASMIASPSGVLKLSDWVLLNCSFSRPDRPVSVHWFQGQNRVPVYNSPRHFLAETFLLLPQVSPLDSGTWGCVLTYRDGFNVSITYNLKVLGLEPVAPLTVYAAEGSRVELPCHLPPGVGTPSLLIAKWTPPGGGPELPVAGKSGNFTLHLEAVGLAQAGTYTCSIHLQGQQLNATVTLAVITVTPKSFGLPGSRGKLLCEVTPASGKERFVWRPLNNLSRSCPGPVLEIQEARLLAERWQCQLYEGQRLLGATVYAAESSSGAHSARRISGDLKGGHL

[3] = target: T1, Recombinant human LAG3-His (Sino …); assay: SPR (Biacore), antibody captured by anti-human Fc, human LAG3-His as analyte, 1:1 model
Mouse LAG3 [4] = target: T2, Mouse LAG3; assay: ELISA: LAG3-His coated at 2 µg/mL on a Ni-NTA plate, antibody (IgG4) at 2 µg/mL, anti-human Fc-HRP, OD at 450nm
[5] = target: T1, Recombinant human LAG3-His (Sino …); assay: SPR (Biacore): antibody captured on anti-human Fc, human LAG3-His in solution
[6] = target: T3, human LAG3 on LAG3/NFAT-Luc reporter Jurkat cells (human, UniProt P18627); assay: Flow cytometry on human LAG3/NFAT-Luc Jurkat cells, ΔMFI = LAG3 Jurkat minus wild-type Jurkat, AF647 anti-human IgG
T3 construct: on the surface of transfected Jurkat cells; also called human LAG3 expressed on Jurkat cells (BPS Biosciences; catalogue No. 71278)
T3 sequence (antigen, looked up): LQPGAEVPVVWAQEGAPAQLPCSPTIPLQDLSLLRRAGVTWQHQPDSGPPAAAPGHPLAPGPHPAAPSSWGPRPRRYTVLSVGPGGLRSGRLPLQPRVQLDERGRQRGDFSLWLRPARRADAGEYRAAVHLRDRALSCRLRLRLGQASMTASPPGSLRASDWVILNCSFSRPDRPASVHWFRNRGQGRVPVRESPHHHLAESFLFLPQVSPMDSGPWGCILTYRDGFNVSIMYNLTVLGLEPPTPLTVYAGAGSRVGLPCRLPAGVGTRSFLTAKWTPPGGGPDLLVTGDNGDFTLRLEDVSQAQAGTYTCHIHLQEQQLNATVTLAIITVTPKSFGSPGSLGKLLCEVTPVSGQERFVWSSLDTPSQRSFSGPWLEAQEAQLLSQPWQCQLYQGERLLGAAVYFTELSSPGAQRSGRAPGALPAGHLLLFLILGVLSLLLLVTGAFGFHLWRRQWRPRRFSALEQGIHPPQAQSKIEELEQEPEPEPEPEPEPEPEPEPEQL

[7] = target: T4, recombinant human LAG3-Fc Tag protein (Sino Biological; catalogue no. 16498-H05H) (human, UniProt P18627); assay: ELISA: antibody coated at 5 µg/mL captures human LAG3-Fc at 2 µg/mL; how the black bars (LAG3 binding) were detected is not told
T4 construct: recombinant, soluble
T4 sequence (fusion chain, looked up): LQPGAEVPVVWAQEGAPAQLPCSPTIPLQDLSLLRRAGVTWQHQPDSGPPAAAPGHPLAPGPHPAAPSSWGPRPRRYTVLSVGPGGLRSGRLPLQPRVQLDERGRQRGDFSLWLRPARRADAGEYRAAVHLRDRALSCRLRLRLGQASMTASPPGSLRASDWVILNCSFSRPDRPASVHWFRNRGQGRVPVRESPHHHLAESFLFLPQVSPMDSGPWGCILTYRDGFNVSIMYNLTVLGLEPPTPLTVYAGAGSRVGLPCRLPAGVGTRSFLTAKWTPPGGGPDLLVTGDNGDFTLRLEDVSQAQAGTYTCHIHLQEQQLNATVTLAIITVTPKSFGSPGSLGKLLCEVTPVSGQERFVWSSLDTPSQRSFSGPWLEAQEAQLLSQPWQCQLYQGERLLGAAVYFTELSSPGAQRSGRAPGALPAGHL

B1: 1C5-3A6 (antibody, V domains shown)
VH: QVQLVQSGAEVKKPGASVKVSCKASGYTLTDYYIHWVRQAPGQGLEWVGWINPNSGGTNYEQKFQGRVTMTWDTSISTAYMELSRLTSDDTAVYYCAREGWSNDWYVGYYFDYWGQGTLVTVSS
VL: DIQMTQSPLSLSASVGDRVSITCRASQYIGTSLNWYEQKPGNSPKLLITGASRLQSGVPSRFSGSGSGTDFTLTINTLQPDDLATYYCHQSYDDPPTFGQGTKLEIK
notes: also called anti-LAG3 antibody 1C5-3A6
In the case of B1, the “EC50 (read off the curve)” value [1] is reported as roughly 0.07 µg/mL, the binding result (Mouse LAG3 [2]) is reported as “binds” and the Kd [3] is reported as 0.0643 nM.

B2: 5C8 (antibody, V domains shown)
VH: QVQLVQSGAEVKKPGASVKVSCKASGYTFTSYGISWVRQAPGQGLEWMGWISAYNGNTNYAQKLQGRVTMTTDTSTSTAYMELRSLRSEDTAVYYCARDSGYDFEDWFDPWGQGTLVTVSS
VL: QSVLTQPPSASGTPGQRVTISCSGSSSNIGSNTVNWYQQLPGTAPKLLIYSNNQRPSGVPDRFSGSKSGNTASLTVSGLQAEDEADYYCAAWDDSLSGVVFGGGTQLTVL
notes: also called anti-LAG3 antibody 5C8
For B2, the binding result (Mouse LAG3 [4]) was “no binding (tested: 2 µg/mL)” and the “EC50 (read off the curve)” value [1] was roughly 0.02 µg/mL.

B3: 8D9 (antibody, V domains shown)
VH: QVQLVQSGAEVRKPGSSVKVSCKASGGTFSNYAFSWVRQAPGLGLEWLGAIIPEFDTANYAQKFKDRVTITADDSTTTVYMELSSLRSEDTAVYYCASGMWDYYGSGSSIDYWGQGTLVTVSS
VL: QSVLTQPPSASGTPGQRVTISCSGSNSDIGRNPVNWYHQFPGTAPKLLIFSNSHRPSGVPDRFSGSKSGTSASLAIGGLQSDDEADYYCAAWSDSLNGYVFGTGTKLTVL
notes: also called anti-LAG3 antibody 8D9; Clone 8D9
B3: binds [5]; no binding (tested: 2 µg/mL) (Mouse LAG3 [2]); binds [6]. B3: binds [7].
